32 molecules from US6387638 can be followed below.

Ends that are not written are not given here.

Experiment [1] has as its target T1, ErbB-3 receptor-Ig fusion (homodimer) (human, UniProt P21860 20-643; P21860 20-636). Put plainly: phage ELISA, soluble ErbB-3-Ig as competitor.
Experiment [2] addresses T2, ErbB-4 receptor-Ig fusion (homodimer) (human, UniProt Q15303 26-651; Q15303 26-640). Put plainly: phage ELISA, soluble ErbB-4-Ig as competitor. On the technique in general: In an ELISA, binding on a coated surface is turned into a signal by an enzyme label.
Experiment [3] addresses T1, ErbB-3 receptor-Ig fusion (homodimer). Kind of experiment: phage ELISA, soluble ErbB-3-Ig as competitor. This is another data set of the same source.
Experiment [4] shares this target. Put plainly: displacement of 125I-HRG-β1 177-244 from plate-bound ErbB-3-Ig. For orientation: In a radioligand displacement assay an active substance lowers the binding of a labelled ligand.
For experiment [5], the target named is T2, ErbB-4 receptor-Ig fusion (homodimer). Put plainly: displacement of 125I-HRG-β1 177-244 from plate-bound ErbB-4-Ig.

T2 sequence (Q15303 other isoform, or with tags, fused parts or gaps): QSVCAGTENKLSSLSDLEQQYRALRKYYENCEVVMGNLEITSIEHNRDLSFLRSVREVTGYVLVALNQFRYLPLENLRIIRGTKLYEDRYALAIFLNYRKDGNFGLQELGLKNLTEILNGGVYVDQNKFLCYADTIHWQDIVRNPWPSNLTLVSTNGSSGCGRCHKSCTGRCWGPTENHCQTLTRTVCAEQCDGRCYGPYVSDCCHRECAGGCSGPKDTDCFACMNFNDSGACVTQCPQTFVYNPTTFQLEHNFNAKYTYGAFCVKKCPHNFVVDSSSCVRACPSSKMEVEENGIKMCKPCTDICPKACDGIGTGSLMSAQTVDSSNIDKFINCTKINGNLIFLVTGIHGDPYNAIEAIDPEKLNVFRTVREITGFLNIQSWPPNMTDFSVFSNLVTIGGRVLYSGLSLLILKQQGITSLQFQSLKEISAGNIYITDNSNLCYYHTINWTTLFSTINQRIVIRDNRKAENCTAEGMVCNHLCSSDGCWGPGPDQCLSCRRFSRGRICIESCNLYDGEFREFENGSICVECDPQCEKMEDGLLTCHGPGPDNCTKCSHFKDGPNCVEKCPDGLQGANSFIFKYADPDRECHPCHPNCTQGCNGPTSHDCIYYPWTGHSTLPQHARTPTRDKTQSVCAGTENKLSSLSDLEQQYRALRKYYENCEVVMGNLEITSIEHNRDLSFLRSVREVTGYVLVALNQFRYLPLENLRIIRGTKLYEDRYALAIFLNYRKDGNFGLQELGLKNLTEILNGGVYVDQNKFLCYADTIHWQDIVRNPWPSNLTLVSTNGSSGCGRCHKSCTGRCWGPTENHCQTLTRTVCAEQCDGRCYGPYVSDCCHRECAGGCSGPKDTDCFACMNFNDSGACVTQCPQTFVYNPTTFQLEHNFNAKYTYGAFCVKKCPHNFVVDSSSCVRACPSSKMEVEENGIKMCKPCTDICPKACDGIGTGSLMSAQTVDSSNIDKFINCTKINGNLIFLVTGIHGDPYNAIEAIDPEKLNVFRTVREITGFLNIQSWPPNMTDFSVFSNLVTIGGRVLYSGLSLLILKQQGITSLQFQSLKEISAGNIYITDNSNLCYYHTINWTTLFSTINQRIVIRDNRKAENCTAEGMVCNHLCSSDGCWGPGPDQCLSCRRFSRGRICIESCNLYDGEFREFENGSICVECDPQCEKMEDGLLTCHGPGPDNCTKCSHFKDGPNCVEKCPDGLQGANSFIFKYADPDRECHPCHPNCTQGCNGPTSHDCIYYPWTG
T1 sequence (P21860 other isoform, or with tags, fused parts or gaps): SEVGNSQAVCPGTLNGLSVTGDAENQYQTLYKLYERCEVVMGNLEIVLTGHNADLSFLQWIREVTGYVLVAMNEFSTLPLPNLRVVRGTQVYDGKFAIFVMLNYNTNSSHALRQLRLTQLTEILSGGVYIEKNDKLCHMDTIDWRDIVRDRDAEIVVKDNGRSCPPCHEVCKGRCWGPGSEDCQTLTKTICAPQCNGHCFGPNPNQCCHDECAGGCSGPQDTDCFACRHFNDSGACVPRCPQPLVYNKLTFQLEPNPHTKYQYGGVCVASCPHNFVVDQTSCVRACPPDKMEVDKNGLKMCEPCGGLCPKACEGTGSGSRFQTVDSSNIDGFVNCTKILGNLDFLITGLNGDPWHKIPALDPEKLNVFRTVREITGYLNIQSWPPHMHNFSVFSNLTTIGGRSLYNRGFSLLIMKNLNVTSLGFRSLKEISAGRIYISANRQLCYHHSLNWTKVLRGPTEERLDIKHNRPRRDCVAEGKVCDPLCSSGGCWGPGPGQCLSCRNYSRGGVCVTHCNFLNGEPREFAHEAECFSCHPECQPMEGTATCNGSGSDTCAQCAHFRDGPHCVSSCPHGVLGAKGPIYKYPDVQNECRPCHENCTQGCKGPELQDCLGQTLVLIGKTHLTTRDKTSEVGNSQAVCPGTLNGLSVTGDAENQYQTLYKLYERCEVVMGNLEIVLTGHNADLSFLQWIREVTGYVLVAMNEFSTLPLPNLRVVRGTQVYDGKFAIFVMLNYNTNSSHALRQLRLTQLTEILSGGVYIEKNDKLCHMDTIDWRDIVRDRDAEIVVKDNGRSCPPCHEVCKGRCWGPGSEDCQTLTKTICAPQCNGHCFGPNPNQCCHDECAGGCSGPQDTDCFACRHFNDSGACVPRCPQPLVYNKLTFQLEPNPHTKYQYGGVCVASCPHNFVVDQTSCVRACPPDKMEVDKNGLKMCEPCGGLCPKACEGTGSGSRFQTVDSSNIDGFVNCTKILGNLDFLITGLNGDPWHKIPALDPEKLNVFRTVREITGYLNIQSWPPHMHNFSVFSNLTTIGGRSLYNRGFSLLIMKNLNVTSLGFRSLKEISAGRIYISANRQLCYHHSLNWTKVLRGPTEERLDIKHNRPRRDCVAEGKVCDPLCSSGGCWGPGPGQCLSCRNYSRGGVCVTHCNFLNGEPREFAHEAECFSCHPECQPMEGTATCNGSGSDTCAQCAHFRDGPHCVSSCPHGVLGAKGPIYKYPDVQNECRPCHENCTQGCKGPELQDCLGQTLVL

For “HRG-β1 177-244 H178E, phage-displayed (Example 4 clone) (from UniProt P69168 265-424) (ligand)”, the EC50 Mut/WT amounted to 9.5 in experiment [1] and 1.7 in experiment [2]. Regarding “HRG-β1 177-244 H178D L179V, phage-displayed (Example 4 clone) (from UniProt P69168 265-424) (ligand)”, the EC50 Mut/WT came to 2.2 in experiment [1] and 2 in experiment [2].

B1: HRG-β1 EGF variant B5, phage-displayed (ligand)
chain: SHLVKCGWDREGFCVNGGECFMVKDLSNPSRYLCKCPNEFTGDRCQNYVIAS
modifications: not fully specified; cysteine pairing not given here
notes: pHRG8-g3 scaffold; not shown: Display carrier only: the (GGGS)3 linker and the M13 pIII C-terminal fragment from residue 323
As for B1, in experiment [3], the “EC50(wt)/EC50(mut)” value came to 26 ratio.

B2: combination variant HRG60, phage-displayed (ligand)
chain: SHLVKCGEEREGFCVNGGECYRVKTLSNPSRYLCKCPNEFTGDRCQNYVIAS
modifications: not fully specified; cysteine pairing not given here
notes: not shown: Display carrier only: (GGGS)3 linker and the M13 pIII C-terminal fragment from residue 323
As for B2, the “EC50(wt)/EC50(mut)” value in experiment [3] was determined as 63 ratio.

B3: combination variant HRG53, phage-displayed (ligand)
chain: SHLVKCGEEREGFCVNGGECYRVKTLSNPSRYLCKCPNEFTGDRCQNYVMAS
modifications: not fully specified; cysteine pairing not given here
notes: not shown: Display carrier: (GGGS)3 linker and M13 pIII C-terminal fragment from residue 323
Consider B3, for which the “EC50(wt)/EC50(mut)” value in experiment [3] turned out to be 26 ratio.

B4: HRG-β1 EGF variant B10, phage-displayed (ligand)
chain: SHLVKCDKSREGFCVNGGECFMVKDLSNPSRYLCKCPNEFTGDRCQNYVIAS
modifications: not fully specified; cysteine pairing not given here
notes: as for B1
For B4, the “EC50(wt)/EC50(mut)” value in experiment [3] stood at 9.3 ratio.

B5: combination variant HRG56, phage-displayed (ligand)
chain: SHLVKCGEEREGFCVNGGECFMVKDLSNPSRYLCKCPNEFTGDRCQNYVIAS
modifications: not fully specified; cysteine pairing not given here
notes: as for B3
For the molecule B5, the “EC50(wt)/EC50(mut)” value in experiment [3] was 31 ratio.

B6: HRG90: HRG-β1 EGF Met226Ile, phage-displayed (ligand, phage M13)
chain: SHLVKCAEKEKTFCVNGGECFMVKDLSNPSRYLCKCPNEFTGDRCQNYVIASGGGSGGGSGGGSNSQMAQVGDGDNSPLMNNFRQYLPSLPQSVECRPFVFSAGKPYEFSIDCDKINLFRGVFAFLLYVATFMYVFSTFANILRNKES
notes: range 323-end
Regarding B6, the “EC50(wt)/EC50(mut)” value in experiment [3] was 6.3 ratio.

B7: combination variant HRG54, phage-displayed (ligand)
chain: SHLVKCGEEREGFCVNGGECFMVKDYGYLMCKCPNEFTGDRCQNYVMAS
modifications: not fully specified; cysteine pairing not given here
notes: as for B3
For B7, the “EC50(wt)/EC50(mut)” value in experiment [3] is 12 ratio.

B8: combination variant HRG61, phage-displayed (ligand)
chain: SHLVKCGEEREGFCVNGGECFMVKDYGYLMCKCPNEFTGDRCQNYVIAS
modifications: not fully specified; cysteine pairing not given here
notes: as for B2
As to B8, the “EC50(wt)/EC50(mut)” value in experiment [3] is 29 ratio.

B9: combination variant HRG62, phage-displayed (ligand)
chain: SHLVKCGEEREGFCVNGGECYRVKTYGYLMCKCPNEFTGDRCQNYVIAS
modifications: not fully specified; cysteine pairing not given here
notes: as for B2
Take B9: the “EC50(wt)/EC50(mut)” value in experiment [3] is 32 ratio.

B10: combination variant HRG55, phage-displayed (ligand)
chain: SHLVKCGEEREGFCVNGGECYRVKTYGYLMCKCPNEFTGDRCQNYVMAS
modifications: not fully specified; cysteine pairing not given here
notes: as for B3
B10: in experiment [3], the “EC50(wt)/EC50(mut)” value came out at 13 ratio.

B11: HRG-β1 EGF variant D1, phage-displayed (ligand)
chain: SHLVKCAEKEKTFCVNGGECYKVRILSNPSRYLCKCPNEFTGDRCQNYVIAS
modifications: not fully specified; cysteine pairing not given here
notes: as for B1
B11: in experiment [3], the “EC50(wt)/EC50(mut)” value stood at 11 ratio.

B12: combination variant HRG59, phage-displayed (ligand)
chain: SHLVKCAEKEKTFCVNGGECYRVKTLSNPSRYLCKCPNEFTGDRCQNYVIAS
modifications: not fully specified; cysteine pairing not given here
notes: as for B3
Turning to B12, the “EC50(wt)/EC50(mut)” value in experiment [3] turned out to be 26 ratio.

B13: HRG-β1 EGF variant D10, phage-displayed (ligand)
chain: SHLVKCAEKEKTFCVNGGECYMVKTLSNPSRYLCKCPNEFTGDRCQNYVMAS
modifications: not fully specified; cysteine pairing not given here
notes: as for B1
Take B13: the “EC50(wt)/EC50(mut)” value in experiment [3] turned out to be 2.1 ratio.

B14: Trx-HRG-β1 146-244 S177A fusion (soluble) (ligand)
chain: AYVSSESPIRISVSTEGANTSSSTSTSTTGTAHLVKCAEKEKTFCVNGGECFMVKDLSNPSRYLCKCPNEFTGDRCQNYVMASFYKHLGIEFMEAEELY
On to B14, for which the values for the EC50 in experiment [4] and in experiment [5] were 129 nM and 54.6 nM, respectively.

B15: Trx-HRG-β1 146-244 G194A fusion (soluble) (ligand)
chain: AYVSSESPIRISVSTEGANTSSSTSTSTTGTSHLVKCAEKEKTFCVNGAECFMVKDLSNPSRYLCKCPNEFTGDRCQNYVMASFYKHLGIEFMEAEELY
Take B15: the concentration for a half-maximal effect (EC50) in experiment [4] is 1210 nM; in experiment [5] it was 275 nM.

B16: Trx-HRG-β1 146-244 P205A fusion (soluble) (ligand)
chain: AYVSSESPIRISVSTEGANTSSSTSTSTTGTSHLVKCAEKEKTFCVNGGECFMVKDLSNASRYLCKCPNEFTGDRCQNYVMASFYKHLGIEFMEAEELY
For the molecule B16, the values for the concentration for a half-maximal effect (EC50) in experiment [4] and in experiment [5] were 39.5 nM and 34.2 nM, respectively.

B17: Trx-HRG-β1 146-244 G193A fusion (soluble) (ligand)
chain: AYVSSESPIRISVSTEGANTSSSTSTSTTGTSHLVKCAEKEKTFCVNAGECFMVKDLSNPSRYLCKCPNEFTGDRCQNYVMASFYKHLGIEFMEAEELY
As to B17, the figures for the EC50 in experiment [4] and in experiment [5] were 26.9 nM and 76.3 nM, respectively.

B18: Trx-HRG-β1 146-244 K200A fusion (soluble) (ligand)
chain: AYVSSESPIRISVSTEGANTSSSTSTSTTGTSHLVKCAEKEKTFCVNGGECFMVADLSNPSRYLCKCPNEFTGDRCQNYVMASFYKHLGIEFMEAEELY
With B18, the results for the EC50 in experiment [4] and in experiment [5] were 45.4 nM and 16.9 nM, respectively.

B19: Trx-HRG-β1 146-244 F189A fusion (soluble) (ligand)
chain: AYVSSESPIRISVSTEGANTSSSTSTSTTGTSHLVKCAEKEKTACVNGGECFMVKDLSNPSRYLCKCPNEFTGDRCQNYVMASFYKHLGIEFMEAEELY
Turning to B19, the results for the concentration giving a half-maximal response (EC50) in experiment [4] and in experiment [5] were 975 nM and 565 nM, respectively.

B20: Trx-HRG-β1 146-244 N192A fusion (soluble) (ligand)
chain: AYVSSESPIRISVSTEGANTSSSTSTSTTGTSHLVKCAEKEKTFCVAGGECFMVKDLSNPSRYLCKCPNEFTGDRCQNYVMASFYKHLGIEFMEAEELY
In the case of B20, the EC50 in experiment [4] stood at 1640 nM; in experiment [5], 696 nM.

B21: Trx-HRG-β1 146-244 R207A fusion (soluble) (ligand)
chain: AYVSSESPIRISVSTEGANTSSSTSTSTTGTSHLVKCAEKEKTFCVNGGECFMVKDLSNPSAYLCKCPNEFTGDRCQNYVMASFYKHLGIEFMEAEELY
With B21, the figures for the EC50 in experiment [4] and in experiment [5] were 245 nM and 24.3 nM, respectively.

B22: Trx-HRG-β1 146-244 E195A fusion (soluble) (ligand)
chain: AYVSSESPIRISVSTEGANTSSSTSTSTTGTSHLVKCAEKEKTFCVNGGACFMVKDLSNPSRYLCKCPNEFTGDRCQNYVMASFYKHLGIEFMEAEELY
Take B22: the figures for the EC50 in experiment [4] and in experiment [5] were 42 nM and 13.2 nM, respectively.

B23: Trx-HRG-β1 146-244 H178A fusion (soluble) (ligand)
chain: AYVSSESPIRISVSTEGANTSSSTSTSTTGTSALVKCAEKEKTFCVNGGECFMVKDLSNPSRYLCKCPNEFTGDRCQNYVMASFYKHLGIEFMEAEELY
Turning to B23, the 50% effective concentration (EC50) in experiment [4] is 476 nM; in experiment [5] it was 138 nM.

B24: Trx-HRG-β1 146-244 T217A fusion (soluble) (ligand)
chain: AYVSSESPIRISVSTEGANTSSSTSTSTTGTSHLVKCAEKEKTFCVNGGECFMVKDLSNPSRYLCKCPNEFAGDRCQNYVMASFYKHLGIEFMEAEELY
Take B24: the EC50 in experiment [4] was found to be 145 nM; in experiment [5] it was 32.7 nM.

B25: Trx-HRG-β1 146-244 L179A fusion (soluble) (ligand)
chain: AYVSSESPIRISVSTEGANTSSSTSTSTTGTSHAVKCAEKEKTFCVNGGECFMVKDLSNPSRYLCKCPNEFTGDRCQNYVMASFYKHLGIEFMEAEELY
For the molecule B25, the values for the EC50 in experiment [4] and in experiment [5] were 394 nM and 51.7 nM, respectively.

B26: HRG-β1 EGF variant E3, phage-displayed (ligand)
chain: SHLVKCAEKEKTFCVNGGECFMVKDYRYRMCKCPNEFTGDRCQNYVIAS
modifications: not fully specified; cysteine pairing not given here
notes: not shown: Display carrier only: the (GGGS)3 linker and the M13 pIII C-terminal fragment from residue 323
Turning to B26, in experiment [3], the “EC50(wt)/EC50(mut)” value is 16 ratio.

B27: combination variant HRG57, phage-displayed (ligand)
chain: SHLVKCAEKEKTFCVNGGECYRVKTYGYLMCKCPNEFTGDRCQNYVMAS
modifications: not fully specified; cysteine pairing not given here
notes: as for B3
For B27, in experiment [3], the “EC50(wt)/EC50(mut)” value turned out to be 24 ratio.

B28: combination variant HRG48, phage-displayed (ligand)
chain: SHLVKCAEKEKTFCVNGGECFMVKDYGYLMCKCPNEFTGDRCQNYVIAS
modifications: not fully specified; cysteine pairing not given here
notes: as for B3
As to B28, the “EC50(wt)/EC50(mut)” value in experiment [3] is 49 ratio.

B29: HRG-β1 EGF variant E6, phage-displayed (ligand)
chain: SHLVKCAEKEKTFCVNGGECFMVKDTHYRMCKCPNEFTGDRCQNYVMAS
modifications: not fully specified; cysteine pairing not given here
notes: as for B26
For the molecule B29, the “EC50(wt)/EC50(mut)” value in experiment [3] came out at 6.6 ratio.

B30: combination variant HRG71, phage-displayed (ligand)
chain: SHLVKCAEKEKTFCVNGGECYRVKTYGYLMCKCPNEFTGDRCQHYVIAS
modifications: not fully specified; cysteine pairing not given here
notes: as for B2
With B30, the “EC50(wt)/EC50(mut)” value in experiment [3] is 79 ratio.

A word on the EC50: it is the concentration that produces a half-maximal response.
